Measured values taken from paper PMC2756588.

T1: Bud14, P27637
T1 sequence (P27637 247-328, looked up): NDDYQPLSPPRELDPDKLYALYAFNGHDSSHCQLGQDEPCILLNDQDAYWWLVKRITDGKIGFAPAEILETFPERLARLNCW

T2: Lsb4, P32793
T2 sequence (P32793 402-468, looked up): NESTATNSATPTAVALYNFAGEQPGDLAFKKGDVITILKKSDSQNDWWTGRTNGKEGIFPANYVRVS

T3: Sla1-2, P32790
T3 sequence (P32790 60-140, looked up): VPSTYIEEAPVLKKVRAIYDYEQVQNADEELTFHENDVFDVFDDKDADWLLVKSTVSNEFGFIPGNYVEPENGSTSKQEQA

T4: Boi2, P39969
T4 sequence (P39969 32-116, looked up): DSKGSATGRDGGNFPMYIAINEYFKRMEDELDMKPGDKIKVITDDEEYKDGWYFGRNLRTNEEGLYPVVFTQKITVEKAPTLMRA

T5: Bbc1, P47068
T5 sequence (P47068 1-78, looked up): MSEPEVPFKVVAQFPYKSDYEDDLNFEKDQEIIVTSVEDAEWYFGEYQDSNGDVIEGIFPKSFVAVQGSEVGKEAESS

T6: Sla1-3, P32790
T6 sequence (P32790 344-424, looked up): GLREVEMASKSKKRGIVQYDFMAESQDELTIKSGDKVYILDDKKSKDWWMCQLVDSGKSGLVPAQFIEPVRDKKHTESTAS

T7: Bzz1-2, P38822
T7 sequence (P38822 568-633, looked up): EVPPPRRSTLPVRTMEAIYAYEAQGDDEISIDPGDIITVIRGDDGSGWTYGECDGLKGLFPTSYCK

T8: Cdc25, P04821
T8 sequence (P04821 50-136, looked up): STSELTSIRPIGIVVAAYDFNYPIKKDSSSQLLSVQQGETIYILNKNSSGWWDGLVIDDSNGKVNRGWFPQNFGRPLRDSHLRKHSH

T9: Nbp2, Q12163
T9 sequence (Q12163 103-180, looked up): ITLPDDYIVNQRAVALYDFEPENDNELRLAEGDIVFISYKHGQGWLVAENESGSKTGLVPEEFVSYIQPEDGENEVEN

T10: Myo5, Q04439
T10 sequence (Q04439 1072-1160, looked up): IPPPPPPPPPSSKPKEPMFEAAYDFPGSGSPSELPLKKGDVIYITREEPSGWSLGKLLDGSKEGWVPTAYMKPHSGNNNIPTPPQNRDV

T11: Fus1, P11710
T11 sequence (P11710 432-512, looked up): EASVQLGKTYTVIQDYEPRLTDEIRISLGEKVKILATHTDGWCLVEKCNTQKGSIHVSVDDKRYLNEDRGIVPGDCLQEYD

T12: Abp1, P15891
T12 sequence (P15891 535-592, looked up): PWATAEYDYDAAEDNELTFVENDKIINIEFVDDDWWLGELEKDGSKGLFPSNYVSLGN

T13: Lsb3, P43603
T13 sequence (P43603 385-451, looked up): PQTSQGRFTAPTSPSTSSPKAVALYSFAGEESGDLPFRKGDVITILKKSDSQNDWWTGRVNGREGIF

T14: Boi1, P38041
T14 sequence (P38041 1-86, looked up): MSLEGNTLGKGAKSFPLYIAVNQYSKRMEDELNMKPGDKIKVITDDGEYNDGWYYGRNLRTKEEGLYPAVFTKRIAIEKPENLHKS

T15: Pex13, P80667
T15 sequence (P80667 295-386, looked up): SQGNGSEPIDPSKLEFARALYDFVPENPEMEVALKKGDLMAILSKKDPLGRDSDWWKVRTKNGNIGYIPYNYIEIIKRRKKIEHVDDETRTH

T16: Bzz1-1, P38822
T16 sequence (P38822 478-572, looked up): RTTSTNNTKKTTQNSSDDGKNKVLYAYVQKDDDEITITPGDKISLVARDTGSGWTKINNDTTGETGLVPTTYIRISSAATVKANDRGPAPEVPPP

T17: Hse1, P38753
T17 sequence (P38753 208-285, looked up): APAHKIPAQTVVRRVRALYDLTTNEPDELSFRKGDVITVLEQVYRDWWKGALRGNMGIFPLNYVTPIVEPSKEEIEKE

T18: Cyk3, Q07533
T18 sequence (Q07533 1-83, looked up): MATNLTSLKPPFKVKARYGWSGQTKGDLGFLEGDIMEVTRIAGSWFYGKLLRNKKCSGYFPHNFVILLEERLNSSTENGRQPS

T19: Hof1, Q05080
T19 sequence (Q05080 590-669, looked up): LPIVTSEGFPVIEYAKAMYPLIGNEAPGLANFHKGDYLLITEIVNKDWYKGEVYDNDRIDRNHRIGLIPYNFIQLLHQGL

T20: Pin3, Q06449
T20 sequence (Q06449 53-122, looked up): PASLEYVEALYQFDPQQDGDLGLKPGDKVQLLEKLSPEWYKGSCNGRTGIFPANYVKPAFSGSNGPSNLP

T21: Lsb1, P53281
T21 sequence (P53281 45-122, looked up): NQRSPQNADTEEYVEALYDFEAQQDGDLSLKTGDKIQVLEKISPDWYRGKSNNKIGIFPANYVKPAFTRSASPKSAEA

B1: unnamed (peptide)
chain: NRLRKRLNLPSEISI
B2: unnamed (peptide)
chain: GLRRARYKFPGQQKI
B3: unnamed (peptide)
chain: AGKRRLPLVRFKASD

Each binder was assayed against T1, Bud14, P27637 (assay: SPOT array). Conditions: median of control spots 956.

| SPOT intensity | Binder |
| --- | --- |
| 7 | B1 |
| 9 | B2 |
| 28 | B3 |

Each binder was assayed against T2, Lsb4, P32793 (assay: SPOT array). Conditions: median of control spots 397.

| SPOT intensity | Binder |
| --- | --- |
| 0 | B1 |
| 2 | B2 |
| 18 | B3 |

Each binder was assayed against T3, Sla1-2, P32790 (assay: SPOT array). Conditions: median of control spots 712.

| SPOT intensity | Binder |
| --- | --- |
| 1 | B1 |
| 1 | B2 |
| 3 | B3 |

What follows are binders tested against Rvs167, P39743 (assay: SPOT array). Conditions: median of control spots 2707.
Sequence of Rvs167, P39743 (P39743 419-482): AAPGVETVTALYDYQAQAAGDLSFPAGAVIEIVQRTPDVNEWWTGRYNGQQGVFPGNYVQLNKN

| SPOT intensity | Binder |
| --- | --- |
| 0 | B1 |
| 6 | B2 |
| 6 | B3 |

What follows are binders tested against T4, Boi2, P39969 (assay: SPOT array). Conditions: median of control spots 1161.

| SPOT intensity | Binder |
| --- | --- |
| 3 | B1 |
| 0 | B2 |
| 1 | B3 |

These binders were tested against T5, Bbc1, P47068 (assay: SPOT array). Conditions: median of control spots 796.

| SPOT intensity | Binder |
| --- | --- |
| 74 | B1 |
| 79 | B2 |
| 507 | B3 |

The binders below were run against GST (assay: SPOT array). Conditions: median of control spots 978.

| SPOT intensity | Binder |
| --- | --- |
| 1 | B1 |
| 3 | B2 |
| 4 | B3 |

The binders below were run against T6, Sla1-3, P32790 (assay: SPOT array). Conditions: median of control spots 5475.

| SPOT intensity | Binder |
| --- | --- |
| 141 | B1 |
| 50 | B2 |
| 27 | B3 |

What follows are binders tested against T7, Bzz1-2, P38822 (assay: SPOT array). Conditions: median of control spots 4538.

| SPOT intensity | Binder |
| --- | --- |
| 13 | B1 |
| 1 | B2 |
| 2 | B3 |

Each binder was assayed against T8, Cdc25, P04821 (assay: SPOT array). Conditions: median of control spots 969.

| SPOT intensity | Binder |
| --- | --- |
| 42 | B1 |
| 15 | B2 |
| 55 | B3 |

The binders below were run against T9, Nbp2, Q12163 (assay: SPOT array). Conditions: median of control spots 357.

| SPOT intensity | Binder |
| --- | --- |
| 32 | B1 |
| 22 | B2 |
| 125 | B3 |

What follows are binders tested against T10, Myo5, Q04439 (assay: SPOT array). Conditions: median of control spots 471.

| SPOT intensity | Binder |
| --- | --- |
| 2 | B1 |
| 0 | B2 |
| 2 | B3 |

The binders below were run against T11, Fus1, P11710 (assay: SPOT array). Conditions: median of control spots 1200.

| SPOT intensity | Binder |
| --- | --- |
| 321 | B1 |
| 14 | B2 |
| 23 | B3 |

What follows are binders tested against T12, Abp1, P15891 (assay: SPOT array). Conditions: median of control spots 935.

| SPOT intensity | Binder |
| --- | --- |
| 36 | B1 |
| 47 | B2 |
| 262 | B3 |

The binders below were run against Myo3, P36006 (assay: SPOT array). Conditions: median of control spots 468.

| SPOT intensity | Binder |
| --- | --- |
| 4 | B1 |
| 4 | B2 |
| 22 | B3 |

These binders were tested against T13, Lsb3, P43603 (assay: SPOT array). Conditions: median of control spots 406.

| SPOT intensity | Binder |
| --- | --- |
| 3 | B1 |
| 0 | B2 |
| 16 | B3 |

What follows are binders tested against T14, Boi1, P38041 (assay: SPOT array). Conditions: median of control spots 1162.

| SPOT intensity | Binder |
| --- | --- |
| 12 | B1 |
| 3 | B2 |
| 16 | B3 |

The binders below were run against Bem1-2, P29366 (assay: SPOT array). Conditions: median of control spots 4347.
Sequence of Bem1-2, P29366 (P29366 139-227): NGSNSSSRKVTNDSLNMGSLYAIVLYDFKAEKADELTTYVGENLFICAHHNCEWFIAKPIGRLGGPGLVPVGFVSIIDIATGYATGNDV

| SPOT intensity | Binder |
| --- | --- |
| 3 | B1 |
| 2 | B2 |
| 3 | B3 |

What follows are binders tested against T15, Pex13, P80667 (assay: SPOT array). Conditions: median of control spots 1341.

| SPOT intensity | Binder |
| --- | --- |
| 2 | B1 |
| 2 | B2 |
| 4 | B3 |

What follows are binders tested against T16, Bzz1-1, P38822 (assay: SPOT array). Conditions: median of control spots 4446.

| SPOT intensity | Binder |
| --- | --- |
| 6 | B1 |
| 2 | B2 |
| 0 | B3 |

Each binder was assayed against T17, Hse1, P38753 (assay: SPOT array). Conditions: median of control spots 1727.

| SPOT intensity | Binder |
| --- | --- |
| 99 | B1 |
| 12 | B2 |
| 9 | B3 |

The binders below were run against Sho1, P40073 (assay: SPOT array). Conditions: median of control spots 1148.
Sequence of Sho1, P40073 (P40073 287-367): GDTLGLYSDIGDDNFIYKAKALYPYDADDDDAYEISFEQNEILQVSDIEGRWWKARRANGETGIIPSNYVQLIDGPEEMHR

| SPOT intensity | Binder |
| --- | --- |
| 58 | B1 |
| 69 | B2 |
| 260 | B3 |

Each binder was assayed against T18, Cyk3, Q07533 (assay: SPOT array). Conditions: median of control spots 1451.

| SPOT intensity | Binder |
| --- | --- |
| 8 | B1 |
| 0 | B2 |
| 9 | B3 |

These binders were tested against T19, Hof1, Q05080 (assay: SPOT array). Conditions: median of control spots 4086.

| SPOT intensity | Binder |
| --- | --- |
| 45 | B1 |
| 6 | B2 |
| 7 | B3 |

The binders below were run against T20, Pin3, Q06449 (assay: SPOT array). Conditions: median of control spots 2171.

| SPOT intensity | Binder |
| --- | --- |
| 17 | B1 |
| 4 | B2 |
| 8 | B3 |

The binders below were run against Bem1-1, P29366 (assay: SPOT array). Conditions: median of control spots 4282.
Sequence of Bem1-1, P29366 (P29366 55-141): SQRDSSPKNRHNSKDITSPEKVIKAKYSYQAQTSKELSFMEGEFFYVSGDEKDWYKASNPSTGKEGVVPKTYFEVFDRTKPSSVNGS

| SPOT intensity | Binder |
| --- | --- |
| 0 | B1 |
| 0 | B2 |
| 2 | B3 |

Each binder was assayed against T21, Lsb1, P53281 (assay: SPOT array). Conditions: median of control spots 388.

| SPOT intensity | Binder |
| --- | --- |
| 459 | B1 |
| 71 | B2 |
| 18 | B3 |
